In patent publication EP3912994A1 (Université de Strasbourg, dated 2021):

Target: T1, fibronectin type III domains 1-5 of human tenascin-C (human, UniProt P24821 625-1075)
T1 construct: range 625-1075; Expressed in HEK293 cells, purified on Streptactin XT; coated on the ELISA plate; also called TN1-5
T1 sequence (looked up): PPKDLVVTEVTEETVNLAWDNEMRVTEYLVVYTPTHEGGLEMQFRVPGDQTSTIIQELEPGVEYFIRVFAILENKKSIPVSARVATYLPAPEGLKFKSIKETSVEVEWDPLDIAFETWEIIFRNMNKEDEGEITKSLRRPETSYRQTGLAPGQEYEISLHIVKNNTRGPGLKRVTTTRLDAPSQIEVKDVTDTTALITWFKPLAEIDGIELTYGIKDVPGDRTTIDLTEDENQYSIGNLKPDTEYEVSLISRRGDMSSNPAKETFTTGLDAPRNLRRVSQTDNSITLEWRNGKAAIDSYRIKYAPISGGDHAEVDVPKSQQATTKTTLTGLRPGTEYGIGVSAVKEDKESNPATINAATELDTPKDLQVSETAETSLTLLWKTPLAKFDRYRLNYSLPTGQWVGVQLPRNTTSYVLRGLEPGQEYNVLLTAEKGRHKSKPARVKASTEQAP
Assay: ELISA, TN1-5 coated, biotinylated FN4-6 titrated 1 nM to 1 µM

Kd: 44 nM
B1: fibronectin type III domains 4-6 of human fibronectin (double Strep-tagged) (other, UniProt P02751 909-1175, looked up, not shown: small tags and cut ends)
chain: SPRDLQFVEVTDVKVTIMWTPPESAVTGYRVDVIPVNLPGEHGQRLPISRNTFAEVTGLSPGVTYYFKVFAVSHGRESKPLTAQQTTKLDAPTNLQFVNETDSTVLVRWTPPRAQITGYRLTVGLTRRGQPRQYNVGPSVSKYPLRNLQPASEYTVSLVAIKGNQESPKATGVFTTLQPGSSIPPYNTEVTETTIVITWTPAPRIGFKLGVRPSQGGEAPREVTSDSGSIVVSGLTPGVEYVYTIQVLRDGQERDAPIVNKVVTPLS
notes: range 909-1175; Biotinylated with Biotin-Ahx-NHS for the ELISA on TN1-5; also called FN4-6
